Test: soluble on expression in E. coli; label from the status in PepcDB or PDB records

Sequence	soluble on expression in E. coli
MSDGSVERGTKRAEDSLATHQLTVQYKRYYIDVNENTRGRYIKIAELGTNYKSRIILSIVAAKAIVSEISKMLALIDEPSTGEHAPKESSLIKSETLNVDGRKFYVDLKENVRGRFLRIAQMPMNPRQTRQQIAIPSDGIAEIHKVLTEYLAKFGEGHEQENTNTPKITAENKSFLFHSGKNDRGEFVRISEIKLNSGYRNAITVPMSALVDFRKELDNIIANQGK	not soluble
MPPKKNVVEEKPALIGRLGTNLKVGILGLPNVGKSTFFNVLTKSEAQAENFPFCTIDPNESRVAVQDDRFDWLVNHYKPASKVPAFLNVTDIAGLVKGASEGQGLGNAFLSHVSACDALFHLCRAFDDDDVTHVEGEVDPVRDLEIISNELFAKDLQFIDGPLDKVEKLFTRANDKTKKIEYDTLVRVKKCLEEKKPVRQELWNEKEIEILNKHLFLTAKPIVYLVNLSEKDYIRKKNKWLPKIKAWIDTNDAGAVLIPFSGAFELKLLDMPEDERQKYLKEQGVTSNLDKIVHTGYKALQLEYFFTSGEDEVKAWTIQVGTPAPKAAGRIHTDFEKGFIMAEVMKVADLIELGDEAKCKAGGKYRQQGKTYIVQDGDVIFFKFNAGAGLQAKKK	not soluble
MGSDKIHHHHHHMALPSLNGMRAFEAAARLGSIKDAAEELHLTPSAISRHIRALERNLGQDLFERGFRQITPTIRGSYYARSLSEAFEAIWRATDDVSLADGPSHGRTQRVRVLCVPAVLNLWLADRLPNFRRLHPAVELEISTSGKRANFDLAIVDEFVYKAGPALTLLIPLVLTPVCAPSLLDGPVPLRSPADLVNHHLIHECESMRWKRWLEQEGVLDTTPKSSTTLDDCTLIMREAINGAGIALADTMMAQDFLQQGKLVAPFPARHTYPAGIYLHQRRSIGNKPGTGLFQDWLLSEVEDHKRVMAIA	not soluble
TPDFTWKTSLNFSANKNKIVELHEELKEFVYGPTSFSSSYAMKLVKGGSIGDIYGKAFIRDEAGSIVYGTDGDYKGLPLVEGDGNTVKVGNANPDFMLGWNHSFSYKGFSLYFLLDWRYGGEVLSQTQAEMDLYGVSKATAQARDKGYVSLEGQQISDVKGFYKNVVGGRAGVTEYYMYDATNLRLREISLSYSFPRKWVQKTNCLKDLQLSFVARNLCFLYKKAPFDPDLVLSTGNDNQGIEVFGMPTTRSLGFTLTCEF	not soluble
MTESAPSAFFTTSTPADHVHEEESSNTGYFENLPENDIHSFFEIDATSEWIKQGNHQRIALQFPDSLLPYSEKVTKLIESRFRSESAKKTFVLADTSYRSCCVDEVAAAHADCTALVHFGEACHSAPTDKIDVKYVLGSMPIFIDQFRMEFQNVADQLTAEHIVLLMDSCFSHEQEKVAAVIKEVLPGNRHVECSLLPSEDVLKQNRQNIYLGREIPSCLRNNQPTDLIFCGFPNSPLLPIWLLSYPSCSTVSHFNPINKTIQHESTRSSRLLRKRLFLVEKLKDADTVGLVVGSVGVDKHREAVKRMREMCKKAGKKIYVISVGKINVPKLSNFSTDIDVFVLLSCPFGVVLDSSDYFRPVVSYFEAEIALNPAKTWAADFGWSAEFAAFLEDKIETEVPDDKAAGDFSLISGKVRVQKTEEEKNGDGPSSVAIYNPGYCNDRTWKGLNDGVSTAEDSTKMGEGRSGIAQGYSGK	not soluble
RVESLMTHRSDIIALDLDDPVDENLKKMIASGRSNFPVYERDLDDVIGIVSVKDVLAKLVESGKVDIRASVTKPLFAPEAITILKLLESFKETGMHIALITDEYGSVQGIITLHDILEAIVGDVRSLGEPEEEQI	not soluble
LRASEIMNRTLDLQIIMDDLLNLLLKEFKLDLAVIRLVDEKGVLRVRSYSGKGIAGIAGKDWEPEIETYIGEAFLSNRLQFVNDTQYMTKPLTRELMQKEGIKSFAHIPISRKGEPPFGILSVFSRTIVGLFNEPFLNLLESLAGQLAQAVKIVTEMEAKEREREEKERILLENA	soluble
MSLAACSGGGNSSQGSGGSKFAFWDMPWGSPGPDYLAAGKEISAAFSGGSATYQSISWDGWLQTFSSAIAAGTGPAISTGGAFQSLQYYVQDAVHPADGVIAKLRSKGQLDDFLPGTLDVFKYKGAYTALPWNVDSRLLWYRKSLLEKAGVEEPRSWDDLYRVGVALKKNDVYGMVASGGAGGNAYQTFLSFVFNNGGGLFDKDGEPQCVTDANVEAVEFLMKLAKDGIMDPGSVSYTVANLNDQFSSGAAALSILPPDIANSFEDPRLKADITLGSPLTSPNGTKGTMAYTSDLILYTGDWDTDVVEDFAVYYLDAMSAYWKKGVLNKVPVRQSILDLPEVQAQPNLVKATKEWLPVGKSLTQLAGEPFPEINAVDGGQAITQWAQQVIQAKSSGEQTLRTLQDGIEKVMEGHHHITTDPNSSSVDKLAAALEHHHHHH	soluble
MKYSLCTISFRHQLISFTDIVQFAYENGFEGIELWGTHAQNLYMQEYETTERELNCLKDKTLEITMISDYLDISLSADFEKTIEKCEQLAILANWFKTNKIRTFAGQKGSADFSQQERQEYVNRIRMICELFAQHNMYVLLETHPNTLTDTLPSTLELLGEVDHPNLKINLDFLHIWESGADPVDSFQQLRPWIQHYHFKNISSADYLHVFEPNNVYAAAGNRTGMVPLFEGIVNYDEIIQEVRDTDHFASLEWFGHNAKDILKAEMKVLTNRNLEVVTSENLYFQ	soluble
IDENSFWIEGYFKETDLAGIAPNDRATVTLLMHDDVALEGKIKSIGFGIAKKDGTTGNDLLPTVNPNFQWIRLAQRIPVKVTLNEMPKDLQLRVGMTASIKIIKH	not soluble
MFTQRKKWLSGVAAGLLMAASVSASAEEKILHIYNWSDYIAPDTLANFQKETGIKVVYDVFDSNEVLEGKLMAGSTGFDLVVPSASFLERQLSAGVFKPLDKSKLPNEKNLDPELLALVSKHDPDNKYAIPYLWATTGIGYNVEKVKAVLGEDAPVNSWDLVLKPENLEKLKSCGVSFLDAPSEIFATVLNYLGKDPNSTLTADYTGSATDLLLKLRPNIRYFHSSQYINDLANGDICVAVGWAGDIMQASNRAKEAKNGVNVAYSIPKEGALAFFDVFAMPTDAKNQDEAYQFLNYLMRPDVIANISNHVFYANANQAATPLVNAEVRDNPGIYPPADVRAKMFTLKVQDPKIDRVITRAWTKVKSGK	not soluble
AKGSTNHRALTGVIFEPFEEVKKELDLVPTVPQASLARQKYVDESESAVNEQINVEYNVSYVYHAMFAYFDRDNVALRGLAKFFKESSEEEREHAEKLMEYQNKRGGKVKLQSIVMPLSDFDHADKGDALHAMELALSLEKLTNEKLLNLHSVATKNGDVQLADFVETEYLGAQVEAIKRISEYVAQLRRVGKGHGVWHFDQMLLHEGGDAA	soluble
MNTESSPFVFNVGTLVRGSAVPASVQQTGPSPVRIGPAMIAIPENGDVTVNATITPLGDALMVDADVSAELSGECVRCLQHMAPRAQFHVNEVFALTEDFITGDDGDGEDDDVTVITGDTVDILQAVIDEAGMSLPFNPQCEGGCVQSDSDVPEPDGIAGETELVDPRWAGLEKFL	not soluble
MTAPSLLIAGCGDIGSRLATRLLPHGWTVHGLRRTVSELPAGVHGVAGDLFDTRKPALWPAAALDYVVYCATPSKRDEAGYRMAYVEGLRNVLSWLEQTGQRPKRLIFVSSSGVYGQQNGEWVDEDSITEPANYTGTVMLEAEQLALNSGLPATAVRLTGIYGPGRSDLSNRVRQGHSVRIDPPVYANRIHADDAASLLEHLLQADQRGVALESCYLGVDDDPAALADVVAWIREYLGVTEWSEEVSVQRVGSKRCSNARARALGWTPMYPDYRAGYAALLG	not soluble
MSLASATDSRYGQKESSDQNFDYMFKILIIGNSSVGKTSFLFRYADDSFTPAFVSTVGIDFKVKTIYRNDKRIKLQIWDTAGQERYRTITTAYYRGAMGFILMYDITNEESFNAVQDWSTQIKTYSWDNAQVLLVGNKCDMEDERVVSSERGRQLADHLGFEFFEASAKDNINVKQTFERLVDVICEKMSESLDTADPAVTGAKQGPQLSDQQVPPHQDCACEGHHHHHH	soluble
MEHKTPKHIVAVAGYLTNEKNEVLLTKVHWRADTWELPGGQVEEGEALDQAVCREIKEETGLTVKPIGITGVYYNTSMHILAVVFKVAYISGEIKIQPEEIQEAKFVDLNEENIDEYITRPHMKSRTLDAMRATHFIPYETWEVQPYNLIGRL	not soluble
MGSDKIHHHHHHMDIKLKDFEGPLDLLLHLVSQYKVDIYEVPIVEVIEQYLNYIETLQVMKLEVAGDYMLMASQLMLIKSRRLLPKVVEHIEEDLEQDLLEKIEEYSRFKAVSQALAKQHDQRAKWYSKPKQELIFEDAILQEDKTVMDLFLAFSNIMAAKRAVLKNNHTVIERDDYKIEDMMASIKQRLEKENVIRLSAIFEECQTLNEVISIFLASLELIKLHVVFVEQLSNFGAIILRKEKK	not soluble
PSQDPRTPGGSEWRETGPQFRCLPPVPADMVFLVDGSWSIGHSHFQQVKDFLASVIAPFEIGPDKVQVGLTQYSGDAQTEWDLNSLSTKEQVLAAVRRLRYKGGNTFTGLALTHVLGQNLQPAAGLRPEAAKVVILVTDGKSQDDVHTAARVLKDLGVNVFAVGVKNADEAELRLLASPPRDITVHSVLDFLQLGALAGLLSRLICQRLQGGSPRQGPAAAPALDTLPAPTSLVLSQVTSSSIRLSWTPAPRHPLKYLIVWRASRGGTPREVVVEGPAASTELHNLASRTEYLVSVFPIYEGGVGEGLRGLVTTAPLPPPRALTLAAVTPRTVHLTWQPSAGATHYLVRCSPASPKGEEEEREVQVGRPEVLLDGLEPGRDYEVSVQSLRGPEGSEARGIRARTPTLAPPRHLGFSDVSHDAARVFWEGAPRPVRLVRVTYVSSEGGHSGQTEAPGNATSAMLGPLSSSTTYTVRVTCLYPGGGSSTLTGRVTTKKAPSPSQLSMTELPGDAVQLAWVAAAPSGVLVYQITWTPLGEGKAHEISVPGNLGTAVLPGLGRHTEYDVTILAYYRDGARSDPVSLRYTPSTVSRSPPSNLALASETPDSLQVSWTPPLGRVLHYWLTYAPASGLGPEKSVSVPGARSHVTLPDLQAATKYRVLVSAIYAAGRSEAVSATGQTACPALRPDGSLPGFDLMVAFSLVEKAYASIRGVAMEPSAFGGTPTFTLFKDAQLTRRVSDVYPAPLPPEHTIVFLVRLLPETPREAFALWQMTAEDFQPLLGVLLDGDVGPASPPAVRRSRGREAPEPWEAFRGSPASRPGPQHPLGGRQVSRAGGCGPH	soluble
SNAMNVWQVVGYKHSGKTTLMEKWVAAAVREGWRVGTVKHHGHGGEPARPEGVDSVRHERAGAVATAVEGDGLLQLHLRRPLWRLDDVLALYAPLRLDLVLVEGYKQERHPKVVLVRSEEDWASLQHLANIRAVIAWEPLEGPLAHPVFSLADDDEYIPWLMNEVRTRT	soluble
MGSDKIHHHHHHMDNKELKAFCNLIGLNCVGVAGVDKYDNLEKILKDRQQKGYLTGMEEPIIENRINPRHIMKDANSIIVCAFPYHINRQEKNKNSNLSKYCHGKDYHIVVKDFLQQICDYISKTVTDFKYKLFADNGPLVDRYLAYLSGIGYFGINNNIITDEYGSYVFIGYIVNNYKFEEDKPLEKSCFKCGKCVKYCPGNAILGNYDMNPKKCLSYITQKKGDLSEKEKVVLKNGKKVFGCDICQEVCPHNVEIPTTHILEFKENIIDYLDYDEIQNISNKEFKRRYGDRAFSWRGRNIIKRNMEIILDKYDD	not soluble
MDNQKRPFTTRFDHYNYNVLNLERSLAFYDRAFGFREVKRKEAADGSFILVYLGDVYGHFLLELTWLRDRKEPYNLGENEVHLCVRTTGDYDAVREYHRAMGCICYENEQMGLYFVNDPDGYWIEVLPENRD	not soluble
MAASAWCCLRCCRDGGTGHIPLKEMPAVQLDTQHMGTDVVIVKNGRRICGTGGCLASAPLHQNKSYFEFKIQSTGIWGIGVATQKVNLNQIPLGRDMHSLVMRNDGALYHNNEEKNRLPANSLPQEGDVVGITYDHVELNVYLNGKNMHCPASGIRGTVYPVVYVDDSAILDCQFSEFYHTPPPGFEKILFEQQIF	soluble
